{
  "source": "paper PMC9820303",
  "about": "“^αN-Acetyl β-Endorphin Is an Endogenous Ligand of σ1Rs That Regulates Mu-Opioid Receptor Signaling by Exchanging G Proteins for σ2Rs in σ1R Oligomers” (International Journal of Molecular Sciences, 2022)",
  "target": "T1, σ1R oligomers-G proteins (Gi2, Go, Gq-11, Gz) (Mus musculus, UniProt O55242)",
  "T1 construct": "The coding region of the full-length murine σ1R (AF004927); GST (N); made in house; host or cells: E. coli BL21 (KRX) for σ1R; the G proteins come from solubilised mouse cerebral cortex synaptosomal membranes",
  "T1 sequence (O55242 whole entry)": "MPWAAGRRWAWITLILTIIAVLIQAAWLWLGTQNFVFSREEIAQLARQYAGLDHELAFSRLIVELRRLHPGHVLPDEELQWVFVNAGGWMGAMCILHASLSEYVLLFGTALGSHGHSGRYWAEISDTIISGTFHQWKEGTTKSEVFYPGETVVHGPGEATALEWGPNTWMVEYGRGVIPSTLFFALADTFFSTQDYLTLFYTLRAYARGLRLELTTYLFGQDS",
  "assay": "Ex vivo fishing assay: G proteins of mouse solubilized brain membranes (SBM) bound to agarose-σ1R oligomers",
  "type": "biochemical",
  "conditions": "for effect on G protein binding to agarose-σ1R oligomers: 2 h, increasing concentrations, n = 3",
  "method": "(A) The effect of σ1R deletion on opioid- and cannabinoid-induced analgesia. Analgesic compounds were icv-injected into wild-type and σ1R^−/− mice, and analgesia was evaluated 30 min after morphine (3 nmol) and β-End 1–31 (0.5 nmol), 15 min after DAMGO (0.1 nmol) and DPDPE (10 nmol) and 10 min after WIN55,212-2 (15 nmol). The bars are the mean ± SD of eight mice per strain and treatment. * Significant difference with respect to the effect of the analgesic substance in the wild-type group. ANOVA followed by the Holm–Sidak multiple comparisons test, p < 0.05, 1-β > 0.80. (B) Coprecipitation of G proteins with MORs. Solubilized mouse brain cortical membranes enriched in synaptosomes (SBM) from CD1 wild-type (WT) and σ1R^−/− mice were solubilized with sonication in the presence of 1% NP-40. Non-soluble debris was eliminated, and the samples were then incubated overnight at 4 °C with affinity-purified biotinylated IgGs that were raised against extracellular regions of the MOR. Protein complexes that were immunoprecipitated with streptavidin agarose were extensively washed and then resolved by SDS-PAGE. The target G proteins, alpha and beta subunits, were visualized by Western blotting (for further details, see Section 4). IP: immunoprecipitated protein, WB: Western blot. Detection of MORs: these proteins were detected with an anti-MOR antibody directed to the C-terminal sequence, a different amino acid sequence than that used for immunoprecipitation (second extracellular loop-2EL). In parallel blots, an antibody directed to the light IgG chain of the anti-MOR antibodies used for immunoprecipitation of MORs provided a loading control for the samples in the gels. […] The immunosignals of Gα subunits coprecipitated with MORs were referred to those of the MORs. Data are the mean ± SD of three determinations. ANOVA followed by the Holm–Sidak multiple comparisons test, p < 0.05, 1-β > 0.80. (C) Pull-down assays using mouse SBM. Cerebral cortex fractions enriched in synaptosomes from CD1 WT mice were solubilized with RIPA buffer and incubated for 2 h with recombinant σ1Rs covalently attached to agarose-NHS (Θ-σ1R). Agarose pellets containing the bound proteins were resolved by SDS-PAGE, and the G protein α subunits were probed in Western blots. The capture of σ1Rs and σ2Rs by Θ-σ1R was also determined in SBM from WT, σ1R^−/− and σ2R^−/− mice. […] Representative blots are shown. (D) Effect of ligands on the association of endogenous G proteins present in mouse SBM with Θ-σ1R oligomers produced in vitro (see Section 4). The Θ-σ1Rs were incubated with the SBM in the absence and presence of increasing concentrations of σ1R ligands. The G proteins that remained bound to Θ-σ1R oligomers were determined as in (C). […] For each compound and concentration studied data are the mean ± SD, n = 3. Data were analyzed by pairwise Holm–Sidak multiple comparison tests following ANOVA: p < 0.05, 1-β > 0.80.\nFor fishing studies, solubilization of neural synaptosomes from cerebral cortices or PAG was carried out at 4 °C in RIPA buffer. The membranes were incubated at 4 °C for 16 h with agitation, and then centrifuged at 10,000× g for 5 min. The supernatant was cleared with 20 μL of Sepharose 4B (#17-0120-01, GE Healthcare) pre-equilibrated for 1 h at 4 °C, followed by centrifugation at 4300× g for 5 min. The σ1R was immobilized through covalent attachment to N-Hydroxysuccinimide (NHS)-activated Sepharose 4 fast flow (4FF, #17-0906-01; GE) according to the manufacturer’s instructions.",
  "data": [
    {"compound": "Cl.O=C(OCCN1CCOCC1)C1(c2ccccc2)CCCCC1", "note": "[PRE084, 2-(4-morpholinethyl)-1-phenylcyclohexanecarboxylate hydrochloride, reference compound]", "values": [
      {"measurement": "effect on G protein binding to agarose-σ1R oligomers", "setting": "wild-type SBM", "result": "did not disrupt G protein binding to σ1R oligomers but increased the binding to Gz proteins"}
    ]},
    {"compound": "Cc1cc(OCCN2CCOCC2)nn1-c1ccc2ccccc2c1", "note": "[S1RA]", "values": [
      {"measurement": "effect on G protein binding to agarose-σ1R oligomers", "setting": "wild-type SBM", "result": "exhibited G-protein-releasing effects"}
    ]},
    {"compound": "KKGE [β-End 28–31, C-terminal tetrapeptide of β-End 1–31]", "values": [
      {"measurement": "effect on G protein binding to agarose-σ1R oligomers", "setting": "wild-type SBM", "result": "showed G-protein-releasing effects"}
    ]},
    {"compound": "^αN-acetyl β-End 1–31: β-End 1–31 acetylated at N terminal Y1, α position", "values": [
      {"measurement": "release of G proteins from σ1R oligomers in the absence of σ2Rs", "setting": "SBM from σ2R−/− mice", "result": "failed to release G proteins from σ1R oligomers"},
      {"measurement": "concentrations needed for Gz to be freed from σ1R oligomers", "setting": "wild-type SBM", "result": "pM concentrations"},
      {"measurement": "concentrations releasing Go, Gq-11 and Gi2 proteins from σ1R oligomers", "setting": "wild-type SBM", "result": "fM concentrations"},
      {"measurement": "effect on G protein binding to agarose-σ1R oligomers", "setting": "wild-type SBM", "result": "efficiently released G proteins from agarose-σ1Rs"}
    ]},
    {"compound": "β-End 1–26: β-End 1–31 derivative without 5 C-terminal residues (YGGFMTSEKSQTPLVTLFKNAIIKNA; Beta-endorphin; UniProt P01189 237-262, looked up, fragment)", "values": [
      {"measurement": "effect on G protein binding to agarose-σ1R oligomers", "setting": "wild-type SBM", "result": "showed G-protein-releasing effects"}
    ]},
    {"compound": "β-End 1–27: β-End 1–31 derivative without 4 C-terminal residues (YGGFMTSEKSQTPLVTLFKNAIIKNAY; Beta-endorphin; UniProt P01189 237-263, looked up, fragment)", "values": [
      {"measurement": "effect on G protein binding to agarose-σ1R oligomers", "setting": "wild-type SBM", "result": "showed G-protein-releasing effects"}
    ]}
  ]
}
